The supplement of paper PMC10065799, “High-throughput profiling of sequence recognition by tyrosine kinases and SH2 domains using bacterial peptide display” (eLife, 2023)

Legend:
Jak2 = Jak2 (UniProt O60674); test: phosphorylation enrichment, bacterial display (enrichment ratio); higher = better substrate or ligand; peptides without Tyr show the background
c-Src = test: as above
AncSZ = test: as above
Fyn = Fyn (UniProt P06241); test: as above
Fer (mouse) = test: as above
FGFR1 = FGFR1 (UniProt P11362); test: as above
EPHB2 = EPHB2 (UniProt P29323); test: as above
Sequence of EPHB2 (P29323 whole entry, looked up): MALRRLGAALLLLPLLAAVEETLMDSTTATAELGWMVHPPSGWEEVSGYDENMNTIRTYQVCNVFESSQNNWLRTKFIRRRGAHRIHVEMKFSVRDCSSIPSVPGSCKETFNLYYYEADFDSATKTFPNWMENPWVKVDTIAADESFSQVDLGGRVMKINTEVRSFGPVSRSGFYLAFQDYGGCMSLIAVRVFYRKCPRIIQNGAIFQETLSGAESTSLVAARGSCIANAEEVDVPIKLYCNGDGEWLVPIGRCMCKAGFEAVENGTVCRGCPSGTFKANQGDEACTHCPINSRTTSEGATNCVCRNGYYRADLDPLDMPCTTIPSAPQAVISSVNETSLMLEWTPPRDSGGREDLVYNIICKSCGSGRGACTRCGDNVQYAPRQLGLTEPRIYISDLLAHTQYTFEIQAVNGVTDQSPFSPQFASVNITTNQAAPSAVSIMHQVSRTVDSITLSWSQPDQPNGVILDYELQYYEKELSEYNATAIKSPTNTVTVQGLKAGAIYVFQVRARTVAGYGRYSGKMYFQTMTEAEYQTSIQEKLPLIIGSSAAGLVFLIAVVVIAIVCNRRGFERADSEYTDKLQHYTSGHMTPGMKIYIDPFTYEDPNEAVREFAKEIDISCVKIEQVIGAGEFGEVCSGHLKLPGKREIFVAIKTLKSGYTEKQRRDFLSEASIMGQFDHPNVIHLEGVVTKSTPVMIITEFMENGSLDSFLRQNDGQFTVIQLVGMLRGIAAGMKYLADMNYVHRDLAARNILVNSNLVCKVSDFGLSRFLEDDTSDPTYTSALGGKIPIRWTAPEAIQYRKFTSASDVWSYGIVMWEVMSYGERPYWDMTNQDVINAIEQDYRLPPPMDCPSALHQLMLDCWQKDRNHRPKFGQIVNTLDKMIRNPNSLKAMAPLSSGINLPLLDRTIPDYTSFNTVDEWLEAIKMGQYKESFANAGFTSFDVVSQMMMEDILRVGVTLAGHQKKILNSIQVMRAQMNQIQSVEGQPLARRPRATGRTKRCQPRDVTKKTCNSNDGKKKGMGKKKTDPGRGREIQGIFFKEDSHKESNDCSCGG

MERTK = MERTK (UniProt Q12866); test: as above
Sequence of MERTK (Q12866 whole entry, looked up): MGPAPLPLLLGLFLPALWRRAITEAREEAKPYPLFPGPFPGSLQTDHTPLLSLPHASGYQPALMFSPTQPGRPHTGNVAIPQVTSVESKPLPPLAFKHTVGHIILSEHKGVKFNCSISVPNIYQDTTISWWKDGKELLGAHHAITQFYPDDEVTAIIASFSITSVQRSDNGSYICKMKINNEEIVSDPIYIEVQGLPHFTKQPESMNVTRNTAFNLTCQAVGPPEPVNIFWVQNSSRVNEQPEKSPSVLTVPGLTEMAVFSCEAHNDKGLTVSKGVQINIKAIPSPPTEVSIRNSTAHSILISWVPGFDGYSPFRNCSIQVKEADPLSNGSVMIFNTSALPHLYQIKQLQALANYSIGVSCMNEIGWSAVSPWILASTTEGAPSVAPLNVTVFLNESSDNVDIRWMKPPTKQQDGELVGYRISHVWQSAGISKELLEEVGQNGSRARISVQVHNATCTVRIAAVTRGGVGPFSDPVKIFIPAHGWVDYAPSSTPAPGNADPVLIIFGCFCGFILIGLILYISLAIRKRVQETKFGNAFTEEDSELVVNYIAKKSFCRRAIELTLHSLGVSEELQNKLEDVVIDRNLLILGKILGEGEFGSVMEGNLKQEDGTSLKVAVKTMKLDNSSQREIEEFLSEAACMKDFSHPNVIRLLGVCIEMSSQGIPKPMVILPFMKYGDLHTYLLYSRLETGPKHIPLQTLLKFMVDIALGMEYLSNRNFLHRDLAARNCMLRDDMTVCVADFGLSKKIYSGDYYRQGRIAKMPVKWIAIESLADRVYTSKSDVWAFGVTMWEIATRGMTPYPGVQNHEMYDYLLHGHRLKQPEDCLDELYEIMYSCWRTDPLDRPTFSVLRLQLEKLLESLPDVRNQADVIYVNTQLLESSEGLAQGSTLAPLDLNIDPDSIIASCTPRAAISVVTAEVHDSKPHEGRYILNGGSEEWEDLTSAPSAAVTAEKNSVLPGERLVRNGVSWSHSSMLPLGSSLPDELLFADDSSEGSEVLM

c-Abl (mouse) = test: as above
EPHB1 = EPHB1 (UniProt P54762); test: as above
Sequence of EPHB1 (P54762 whole entry, looked up): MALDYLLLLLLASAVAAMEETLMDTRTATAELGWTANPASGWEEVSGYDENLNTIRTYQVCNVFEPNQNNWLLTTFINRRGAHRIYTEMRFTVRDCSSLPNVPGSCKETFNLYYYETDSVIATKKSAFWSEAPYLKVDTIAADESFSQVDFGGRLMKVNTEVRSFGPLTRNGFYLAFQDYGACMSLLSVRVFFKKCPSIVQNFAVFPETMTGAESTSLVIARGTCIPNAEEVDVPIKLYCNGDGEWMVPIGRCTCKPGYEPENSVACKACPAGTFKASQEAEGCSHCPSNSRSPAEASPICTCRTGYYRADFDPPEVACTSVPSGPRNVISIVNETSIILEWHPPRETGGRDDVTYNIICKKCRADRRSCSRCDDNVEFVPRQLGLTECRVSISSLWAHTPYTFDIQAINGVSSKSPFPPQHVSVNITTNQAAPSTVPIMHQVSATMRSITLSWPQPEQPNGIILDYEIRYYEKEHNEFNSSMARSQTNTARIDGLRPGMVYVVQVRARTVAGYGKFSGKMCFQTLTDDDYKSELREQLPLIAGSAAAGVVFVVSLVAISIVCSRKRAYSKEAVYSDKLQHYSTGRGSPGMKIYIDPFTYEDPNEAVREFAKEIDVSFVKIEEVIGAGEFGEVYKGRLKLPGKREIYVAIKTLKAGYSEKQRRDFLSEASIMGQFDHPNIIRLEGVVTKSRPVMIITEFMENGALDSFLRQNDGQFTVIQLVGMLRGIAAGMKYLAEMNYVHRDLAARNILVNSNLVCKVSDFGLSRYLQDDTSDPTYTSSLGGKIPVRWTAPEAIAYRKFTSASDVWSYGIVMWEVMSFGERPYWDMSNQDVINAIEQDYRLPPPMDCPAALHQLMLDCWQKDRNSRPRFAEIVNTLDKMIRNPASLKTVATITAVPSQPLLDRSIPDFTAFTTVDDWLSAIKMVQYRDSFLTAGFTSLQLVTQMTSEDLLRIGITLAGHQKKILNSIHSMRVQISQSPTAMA

Hck = Hck (UniProt P08631); test: as above
Sequence of Hck (P08631 whole entry, looked up): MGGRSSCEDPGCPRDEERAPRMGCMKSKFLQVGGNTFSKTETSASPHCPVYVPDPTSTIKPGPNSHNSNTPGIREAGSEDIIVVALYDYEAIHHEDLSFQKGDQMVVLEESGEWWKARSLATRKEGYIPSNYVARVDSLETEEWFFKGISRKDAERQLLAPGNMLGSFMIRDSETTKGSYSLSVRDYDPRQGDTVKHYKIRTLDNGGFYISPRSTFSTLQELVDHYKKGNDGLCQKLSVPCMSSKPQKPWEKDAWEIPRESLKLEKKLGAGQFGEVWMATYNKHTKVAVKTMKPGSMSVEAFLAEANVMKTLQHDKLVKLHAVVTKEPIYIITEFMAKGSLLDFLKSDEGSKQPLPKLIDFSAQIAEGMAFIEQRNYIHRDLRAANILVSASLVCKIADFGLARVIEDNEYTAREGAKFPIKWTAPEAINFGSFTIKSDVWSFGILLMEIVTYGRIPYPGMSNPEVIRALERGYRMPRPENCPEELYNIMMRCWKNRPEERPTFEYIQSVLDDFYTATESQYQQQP

FGFR3 = FGFR3 (UniProt P22607); test: as above
Fes = Fes (UniProt P07332); test: as above
Sequence of Fes (P07332 whole entry, looked up): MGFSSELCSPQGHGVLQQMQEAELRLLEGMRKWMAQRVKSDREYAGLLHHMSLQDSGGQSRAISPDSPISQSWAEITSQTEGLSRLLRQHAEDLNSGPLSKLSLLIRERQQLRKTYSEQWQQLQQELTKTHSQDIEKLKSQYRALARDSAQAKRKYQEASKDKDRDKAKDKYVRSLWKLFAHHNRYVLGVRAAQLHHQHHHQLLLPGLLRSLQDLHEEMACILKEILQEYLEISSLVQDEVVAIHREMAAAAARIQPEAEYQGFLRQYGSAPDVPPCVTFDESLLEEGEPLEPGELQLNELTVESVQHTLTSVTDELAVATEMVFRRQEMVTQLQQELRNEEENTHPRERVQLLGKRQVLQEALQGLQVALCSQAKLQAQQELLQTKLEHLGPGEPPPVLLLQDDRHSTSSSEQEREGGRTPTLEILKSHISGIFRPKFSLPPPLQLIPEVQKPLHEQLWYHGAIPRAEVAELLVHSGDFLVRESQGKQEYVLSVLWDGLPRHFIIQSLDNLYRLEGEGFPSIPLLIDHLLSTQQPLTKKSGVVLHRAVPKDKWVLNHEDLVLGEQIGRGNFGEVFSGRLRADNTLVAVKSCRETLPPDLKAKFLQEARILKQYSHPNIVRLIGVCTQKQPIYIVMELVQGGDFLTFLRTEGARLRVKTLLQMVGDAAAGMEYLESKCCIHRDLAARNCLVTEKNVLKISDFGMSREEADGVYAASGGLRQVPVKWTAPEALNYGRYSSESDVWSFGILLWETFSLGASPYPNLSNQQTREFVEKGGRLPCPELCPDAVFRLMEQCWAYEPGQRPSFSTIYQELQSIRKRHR

SHP2-C SH2 = test: SH2 binding enrichment of the phosphorylated peptide, bacterial display (enrichment ratio); higher = better substrate or ligand; peptides without Tyr show the background
Grb2 SH2 = Grb2 SH2 (UniProt P62993); test: as above
c-Src SH2 = test: as above
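Wherever SH2 binding enrichment of the phosphorylated peptide, bacterial display is given: peptide library displayed on the E. coli surface as eCPX fusions, selected cells deep-sequenced, score is each peptide's frequency after selection divided by its frequency in the input.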
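Wherever phosphorylation enrichment, bacterial display is given: 11-residue human phosphosite peptides and single-mutation variants displayed on the E. coli surface, counted by deep sequencing, each peptide's frequency after selection divided by its frequency in the unselected input library; frequency after pTyr selection over input frequency; kinase dosed for 20-30% of maximal phosphorylation in three min.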

Sequence of Fyn (P06241 whole entry, looked up): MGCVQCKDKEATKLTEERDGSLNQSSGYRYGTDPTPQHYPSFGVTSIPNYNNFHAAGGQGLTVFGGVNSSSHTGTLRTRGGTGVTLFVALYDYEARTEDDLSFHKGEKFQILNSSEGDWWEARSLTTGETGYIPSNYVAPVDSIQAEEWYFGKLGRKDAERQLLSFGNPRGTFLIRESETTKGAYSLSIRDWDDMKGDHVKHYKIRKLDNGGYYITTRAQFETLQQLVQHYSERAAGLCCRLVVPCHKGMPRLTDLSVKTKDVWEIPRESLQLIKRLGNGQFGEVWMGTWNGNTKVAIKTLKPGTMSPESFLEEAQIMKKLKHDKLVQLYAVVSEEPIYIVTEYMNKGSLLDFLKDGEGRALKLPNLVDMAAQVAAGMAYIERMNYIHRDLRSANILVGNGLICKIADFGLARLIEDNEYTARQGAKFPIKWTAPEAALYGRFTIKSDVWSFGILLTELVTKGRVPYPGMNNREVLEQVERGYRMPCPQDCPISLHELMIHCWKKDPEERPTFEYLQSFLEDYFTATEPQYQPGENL

Sequence | phosphorylation enrichment (Jak2) | phosphorylation enrichment (c-Src) | phosphorylation enrichment (AncSZ) | phosphorylation enrichment (Fyn) | phosphorylation enrichment (Fer (mouse)) | phosphorylation enrichment (FGFR1) | phosphorylation enrichment (EPHB2) | phosphorylation enrichment (MERTK) | phosphorylation enrichment (c-Abl (mouse)) | phosphorylation enrichment (EPHB1) | phosphorylation enrichment (Hck) | phosphorylation enrichment (FGFR3) | phosphorylation enrichment (Fes) | SH2 binding enrichment (SHP2-C SH2) | SH2 binding enrichment (Grb2 SH2) | SH2 binding enrichment (c-Src SH2)
KDFNKYVAFIE [KDM4B_Y31_YF] | 0.744 | 0.456 | 0.799 | 0.513 | 0.434 | 0.399 | 0.429 | 0.424 | 0.629 | 0.43 | 0.505 | 0.581 | 0.836 | 1.02 | 0.864 | 1.42
KDHPDYKYQAR [SOX10_Y171_P175A] | 0.58 | 0.415 | 0.606 | 0.434 | 0.448 | 0.416 | 0.416 | 0.39 | 0.609 | 0.427 | 0.496 | 0.563 | 0.696 | 0.738 | 0.895 | 0.476
KDPPDYKFQPR [SOX9_Y172_H169P_YF] | 0.719 | 0.43 | 0.811 | 0.439 | 0.449 | 0.427 | 0.44 | 0.461 | 0.626 | 0.343 | 0.414 | 0.527 | 0.789 | 0.791 | 0.928 | 0.609
KDQPDYKFQPR [SOX9_Y172_H169Q_YF] | 0.491 | 0.434 | 0.666 | 0.382 | 0.381 | 0.422 | 0.402 | 0.46 | 0.457 | 0.348 | 0.386 | 0.529 | 0.678 | 0.829 | 1.2 | 0.675
KEAQVYQAFRL [SUCLG2_Y343_K347R] | 0.661 | 11.3 | 0.576 | 14.2 | 14 | 0.743 | 0.62 | 4.78 | 19.6 | 1.23 | 14 | 0.581 | 0.677 | 0.541 | 0.768 | 0.486
KFANSYRMEPL [TCTE3_Y87] | 0.774 | 0.528 | 0.574 | 0.47 | 0.465 | 0.443 | 0.409 | 0.417 | 0.534 | 0.43 | 0.414 | 0.491 | 0.623 | 0.762 | 0.861 | 0.653
KFDLMYAKLAF [TUBA1A_Y399_R402L] | 0.811 | 3.04 | 0.818 | 1.26 | 0.632 | 0.49 | 0.619 | 3.23 | 0.716 | 0.726 | 4.61 | 0.676 | 1.13 | 7.45 | 1.07 | 1.73
KFSNQYKATIG [RAB7A_Y37] | 0.538 | 0.485 | 0.528 | 0.41 | 0.463 | 0.351 | 0.311 | 0.4 | 0.471 | 0.47 | 0.44 | 0.411 | 0.613 | 1.01 | 0.948 | 0.656
KFVVVYFREID [IL17RB_Y447_YF] | 1.17 | 0.408 | 1.2 | 0.436 | 0.446 | 0.49 | 0.523 | 0.362 | 0.724 | 0.508 | 0.538 | 0.691 | 1.27 | 2.08 | 1.96 | 1.43
KFWREYILSLE [GPC3_Y299_YF] | 0.997 | 0.588 | 0.999 | 0.462 | 0.422 | 0.478 | 0.666 | 0.431 | 0.912 | 0.552 | 0.452 | 0.72 | 1.2 | 1.31 | 1.27 | 0.932
KGELCYMHSRV [ABCD1_Y281_R280C] | 0.568 | 0.402 | 0.813 | 0.505 | 0.449 | 0.479 | 0.581 | 0.563 | 0.43 | 0.597 | 0.485 | 0.682 | 0.757 | 0.883 | 1.31 | 0.632
KGELRYMHSPV [ABCD1_Y281_R285P] | 0.619 | 0.365 | 0.481 | 0.328 | 0.315 | 0.364 | 0.367 | 0.406 | 0.527 | 0.393 | 0.345 | 0.458 | 0.674 | 0.58 | 0.931 | 0.533
KGIQLYDTPYE [SHB_Y297] | 1.13 | 1.24 | 1.5 | 0.891 | 3.26 | 0.564 | 15.6 | 5.25 | 1.13 | 11.3 | 1.84 | 0.695 | 1.04 | 1.1 | 1.15 | 4.71
KGRAGYTTVAV [RET_Y752] | 0.437 | 0.347 | 0.46 | 0.319 | 0.325 | 0.309 | 0.265 | 0.415 | 0.454 | 0.286 | 0.337 | 0.412 | 0.519 | 1.64 | 1.47 | 1.47
KGYRGYSYDDI [TMEM230_Y110] | 0.607 | 0.434 | 0.756 | 0.425 | 0.393 | 0.485 | 0.424 | 0.417 | 0.547 | 0.407 | 0.395 | 0.509 | 0.774 | 0.652 | 0.963 | 3.92
KHCEDYVCSFN [DSC1_Y846_YF] | 1.13 | 0.829 | 1.15 | 0.473 | 0.525 | 0.572 | 0.522 | 0.424 | 0.719 | 0.564 | 0.446 | 0.681 | 1.08 | 0.87 | 1.06 | 0.809
